Our source for the stoichiometry N values is PMC11022072.

The target in this experiment is bovine lactoferrin (Lf) (bovine). The experiment in a line: […]; 20 mM HEPES pH 7.4, 150 mM NaCl.

Substance “C-terminal α-helical domain (CaHD) of Moraxella bovis LbpB (domain or fragment)” displayed a stoichiometry N of 1.
